Values belong to the molecule of their own block, whether it stands above or below them.
Key:
[1] = target: full-length human photoreceptor guanylate cyclase GC-E (human) (UniProt Q02846); assay: backscattering interferometry (BSI); free solution; HEK cell vesicles with full-length human GC-E (50 μg/mL total protein before mixing) with 0-10 μM GCAP; 30 mM Mops/KOH pH 7.2, 60 mM KCl, 4 mM NaCl, 1 mM DTT, 3.5 mM MgCl2, 1 mM GTP, 0.3 mM ATP; 1 mM EGTA; Mock-HEK vesicles as reference; apparent KD
[2] = target: MBP-KHD: maltose binding protein fused to the juxta-membrane and kinase homology domain of human GC-E (M496-K806) (human) (UniProt Q02846); assay: backscattering interferometry (BSI); free solution; myristoylated GCAP 0 to 6 μM with constant 375 nM MBP fusion protein; titration buffer with 200 μM Ca2+; MBP lacking a GC-E fragment as reference
[3] = target: MBP-KHD: maltose binding protein fused to the juxta-membrane and kinase homology domain of human GC-E (M496-K806) (human) (UniProt Q02846); assay: ITC; VP-ITC, 25 °C; MBP fusion protein 0.5 μM in the cell, GCAP 10 μM in the syringe; 30 mM Mops/KOH pH 7.2, 60 mM KCl, 4 mM NaCl, 1 mM DTT, 3.5 mM MgCl2, 1 mM GTP, 0.3 mM ATP; injections into MBP subtracted; one binding site model; data not shown
[4] = target: full-length human photoreceptor guanylate cyclase GC-E (human) (UniProt Q02846); assay: backscattering interferometry (BSI); free solution; HEK cell vesicles with full-length human GC-E with 0-10 μM GCAP; titration buffer with saturating 200 μM Ca2+; Mock-HEK vesicles as reference
[5] = target: T1, full-length human photoreceptor guanylate cyclase GC-E (human, UniProt Q02846 52-1103); assay: backscattering interferometry (BSI); free solution; HEK cell vesicles with full-length human GC-E (50 μg/mL total protein before mixing) with 0-10 μM GCAP; 30 mM Mops/KOH pH 7.2, 60 mM KCl, 4 mM NaCl, 1 mM DTT, 3.5 mM MgCl2, 1 mM GTP, 0.3 mM ATP; 1 mM EGTA; Mock-HEK vesicles as reference; apparent KD; conditions: one partner purified
T1 construct: also called guanylate cyclase 1; guanylate cyclase type 1
T1 sequence (looked up): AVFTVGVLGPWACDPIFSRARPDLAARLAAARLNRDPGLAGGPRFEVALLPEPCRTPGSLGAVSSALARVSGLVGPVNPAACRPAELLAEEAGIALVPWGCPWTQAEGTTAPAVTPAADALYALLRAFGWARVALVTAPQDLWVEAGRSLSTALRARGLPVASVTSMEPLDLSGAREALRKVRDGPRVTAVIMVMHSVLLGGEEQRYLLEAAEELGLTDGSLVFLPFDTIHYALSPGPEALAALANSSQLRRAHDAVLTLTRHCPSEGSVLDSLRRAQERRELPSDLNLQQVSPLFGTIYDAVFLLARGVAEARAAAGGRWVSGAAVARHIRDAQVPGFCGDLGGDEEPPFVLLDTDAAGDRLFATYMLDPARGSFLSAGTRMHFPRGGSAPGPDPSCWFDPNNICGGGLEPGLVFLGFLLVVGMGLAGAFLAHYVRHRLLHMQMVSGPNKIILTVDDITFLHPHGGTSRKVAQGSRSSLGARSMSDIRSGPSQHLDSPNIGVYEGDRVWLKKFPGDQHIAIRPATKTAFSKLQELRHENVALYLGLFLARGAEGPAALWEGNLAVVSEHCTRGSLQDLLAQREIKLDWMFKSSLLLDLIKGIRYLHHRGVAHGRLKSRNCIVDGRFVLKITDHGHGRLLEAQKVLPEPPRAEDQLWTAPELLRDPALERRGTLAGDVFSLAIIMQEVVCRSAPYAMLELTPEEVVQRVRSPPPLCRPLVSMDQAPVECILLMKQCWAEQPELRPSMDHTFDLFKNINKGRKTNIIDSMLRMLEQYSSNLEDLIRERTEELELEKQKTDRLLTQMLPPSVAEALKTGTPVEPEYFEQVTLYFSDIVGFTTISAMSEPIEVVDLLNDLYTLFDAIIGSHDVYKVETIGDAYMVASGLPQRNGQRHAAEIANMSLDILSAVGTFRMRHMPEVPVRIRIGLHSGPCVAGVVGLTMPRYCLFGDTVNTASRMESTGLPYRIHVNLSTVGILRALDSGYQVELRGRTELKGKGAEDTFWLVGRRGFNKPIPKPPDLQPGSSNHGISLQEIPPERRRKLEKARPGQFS

[6] = target: T1, full-length human photoreceptor …; assay: backscattering interferometry (BSI); free solution; HEK cell vesicles with full-length human GC-E with 0-10 μM GCAP; titration buffer with saturating 200 μM Ca2+; Mock-HEK vesicles as reference; conditions: one partner purified
[7] = target: T2, myristoylated bovine recoverin (bovine, UniProt P21457 1-202, myristoylated); assay: backscattering interferometry (BSI); free solution, label-free; recoverin dilution series with constant 4 μM GST-NRK; 20 mM HEPES/KOH pH 7.5, 100 mM NaCl, 1 mM MgCl2, 200 μM CaCl2; GST alone as reference; one site binding model; conditions: both partners purified
T2 construct: recoverin, bovine, neuronal Ca2+-sensor protein of photoreceptors
T2 sequence (looked up): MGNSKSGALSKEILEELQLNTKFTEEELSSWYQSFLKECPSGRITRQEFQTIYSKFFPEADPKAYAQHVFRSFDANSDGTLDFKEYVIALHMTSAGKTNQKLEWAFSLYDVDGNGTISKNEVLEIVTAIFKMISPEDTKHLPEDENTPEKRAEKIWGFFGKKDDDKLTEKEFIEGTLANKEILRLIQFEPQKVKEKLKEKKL

Kd [1]: 663 nM
Kd [2]: 841 nM
Kd [3]: 580 nM
stoichiometry N [3]: 0.9
Kd [4]: 505 nM
Molecule: guanylate cyclase-activating protein 1 (GCAP1), myristoylated (from UniProt P46065 1-205) (natural protein)

Kd [5]: 231 nM
Kd [6]: 418 ± 135 nM
B1: guanylate cyclase-activating protein 2 (GCAP2), myristoylated (natural protein, UniProt P51177 1-204, looked up)
chain: MGQQFSWEEAEENGAVGAADAAQLQEWYKKFLEECPSGTLFMHEFKRFFKVPDNEEATQYVEAMFRAFDTNGDNTIDFLEYVAALNLVLRGTLEHKLKWTFKIYDKDRNGCIDRQELLDIVESIYKLKKACSVEVEAEQQGKLLTPEEVVDRIFLLVDENGDGQLSLNEFVEGARRDKWVMKMLQMDLNPSSWISQQRRKSAMF
modifications: myristoylated

Kd [7]: 4720 nM
B2: GST fusion protein containing the N-terminal 25 amino acids of bovine GRK1 (domain or fragment, UniProt P28327 1-25, looked up)
chain: MDFGSLETVVANSAFIAARGSFDAS
notes: rhodopsin kinase GRK1, bovine, the N-terminal 25 amino acids; also called NRK; N-terminal GRK1 fragment

From PMC5374524, “Label-free quantification of calcium-sensor targeting to photoreceptor guanylate cyclase and rhodopsin kinase by backscattering interferometry” (Scientific Reports, 2017)
